According to PMC9522936, “Regain flood adaptation in rice through a 14-3-3 protein OsGF14h” (Nature Communications, 2022):

T1: OsHOX3 (Oryza sativa, UniProt Q9XH38 1-229)
T1 sequence: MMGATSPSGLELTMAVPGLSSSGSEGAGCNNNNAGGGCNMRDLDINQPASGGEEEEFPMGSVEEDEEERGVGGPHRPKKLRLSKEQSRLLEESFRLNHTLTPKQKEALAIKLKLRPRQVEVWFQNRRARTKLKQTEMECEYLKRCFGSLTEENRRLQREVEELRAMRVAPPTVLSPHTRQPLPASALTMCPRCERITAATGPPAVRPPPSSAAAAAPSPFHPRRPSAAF

T2: His-OsGF14h^SN9816 (rice (Oryza sativa), japonica variety …, UniProt Q2R1D5 1-230)
T2 construct: also called Hap1; source: E. coli Rosetta (DE3), purified (Ni NTA beads)
T2 sequence (looked up): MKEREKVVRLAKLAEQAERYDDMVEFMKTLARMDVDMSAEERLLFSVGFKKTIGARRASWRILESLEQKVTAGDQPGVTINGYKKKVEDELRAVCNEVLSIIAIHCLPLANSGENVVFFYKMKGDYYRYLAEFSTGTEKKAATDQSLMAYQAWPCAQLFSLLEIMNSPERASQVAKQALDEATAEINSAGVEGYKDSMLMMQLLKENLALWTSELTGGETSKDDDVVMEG


Key:
OsHOX3 = target: T1, OsHOX3; test: EMSA; without OsGF14h; Chemiluminescent EMSA Kit GS009 (Beyotime) per manufacturer; 6% native polyacrylamide gel; unlabeled competitor 10x and 20x; buffer, pH and temperature not stated; conditions: protein: recombinant; tags: GST (pGEX4T-1; N-terminal); chain copies: 2; label: biotin 3' end; blunt
His-OsGF14h^SN9816 = target: T2, His-OsGF14h^SN9816; test: pull-down; GST-OsHOX3 or GST-OsVP1 as bait on GST beads, equal quantities of recombinant proteins in GST pull-down buffer at 4 °C overnight, His-OsGF14h detected by anti-His; conditions: both partners purified

binding result (His-OsGF14h^SN9816)	Binder	binding result (OsHOX3)
–	OsPYL5 promoter HD-ZIP3 probe (55 bp) (dsDNA) DNA 1: AATATAAAACGGTGGGAGTATTAATGATTACATAGTCAATTTTATGTTTGCATTA DNA 2: TAATGCAAACATAAAATTGACTATGTAATCATTAATACTCCCACCGTTTTATATT	binds
binds	GST-OsHOX3 (natural protein, rice, UniProt Q0JKX1 1-229, looked up, HD-Zip family transcription factor OsHOX3, rice; source: E. coli Rosetta (DE3), purified (GST beads)) MMGATSPSGLELTMAVPGLSSSGSEGAGCNNNNAGGGCNMRDLDINQPASGGEEEEFPMGSVEEDEEERGVGGPHRPKKLRLSKEQSRLLEESFRLNHTLTPKQKEALAIKLKLRPRQVEVWFQNRRARTKLKQTEMECEYLKRCFGSLTEENRRLQREVEELRAMRVAPPTVLSPHTRQPLPASALTMCPRCERITAATGPPAVRPPPSSAAAAAPSPFHPRRPSAAF	–
